Source: the supplement of paper PMC10126150
± gives the standard deviation of the averaged measurements.

Tested on: ATP
Experiment: switch fluorescence ratio, 500 uM ATP over buffer (Cy3 cluster intensity, sum of 5 cycles each) (fold (ratio)); higher = stronger signal-on switching upon ATP binding; sequences stand for … in TCGTCGGCAGCGTCAGATGTGTATAAGAGACAGTTTTTTTTTTTTTTTTTTTTTTTTT…TC
Details: aptamer strand: ATP DNA aptamer (quencher-CACCTGGGGGAGTATTGCGGAGGAAGG + anchor), 100 nM annealed; ATP concentration: 500 uM
In short: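 Clusters carrying Cy3-labelled switching strands on a modified Illumina MiSeq flow-cell were annealed to 100 nM quencher-labelled ATP aptamer and imaged in selection buffer. They were imaged again after 15 min with 500 uM ATP at 22 °C, over five buffer/ATP cycles with NaOH stripping and re-annealing in between. For each cluster, the fluorescence ratio is the summed Cy3 intensity of the target cycles divided by that of the buffer cycles, averaged per switch-domain sequence. Clusters outside 100-1000 RFU were left out.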
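Further: ATP exposure 15 min at 22 °C before imaging.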

| Sequence | switch fluorescence ratio |
| --- | --- |
| CAAGTTGATG | 0.982 ± 0.057 |
| CAATAACTGG | 1.01 ± 0.015 |
| CAATACCTAT | 1.05 ± 0.022 |
| CAATACGGGG | 1.13 ± 0.085 |
| CAATACTACT | 1.361 ± 0.01 |
| CAATAGTTGG | 0.993 ± 0.01 |
| CAATATGCCG | 0.968 ± 0.026 |
| CAATATGTGT | 0.986 ± 0.036 |
| CAATATGTTG | 1.02 ± 0.035 |
| CAATATTACA | 1.05 ± 0.016 |
| CAATCATGTC | 1.04 ± 0.05 |
| CAATCCTATC | 1.02 ± 0.034 |
| CAATCGTAAA | 1.01 ± 0.02 |
| CAATGACACT | 1.04 ± 0.044 |
| CAATGAGAGA | 0.9792 ± 0.0083 |
| CAATGCAGCA | 0.976 ± 0.021 |
| CAATGCAGGG | 1.03 ± 0.014 |
| CAATGCGGAG | 1 ± 0.015 |
| CAATGGACGT | 0.99 ± 0.029 |
| CAATGGGATA | 1.02 ± 0.032 |
| CAATGGGGGT | 1 ± 0.038 |
| CAATGGGTAG | 0.9989 ± 0.0018 |
| CAATGTCACC | 1.06 ± 0.019 |

| Sequence | switch fluorescence ratio |
| --- | --- |
| CAATGTGGGT | 0.986 ± 0.0086 |
| CAATGTGTCG | 1.07 ± 0.055 |
| CAATGTGTCT | 1 ± 0.033 |
| CAATGTTAGA | 1 ± 0.014 |
| CAATGTTCGA | 0.981 ± 0.01 |
| CAATTACTTT | 1.06 ± 0.026 |
| CAATTATTCG | 1.04 ± 0.052 |
| CAATTCACCG | 1.04 ± 0.022 |
| CAATTCAGGA | 1.01 ± 0.036 |
| CAATTGGGTT | 0.985 ± 0.025 |
| CAATTTGTCT | 1.01 ± 0.028 |
| CAATTTGTGC | 1.02 ± 0.1 |
| CACAAAATAG | 1.45 ± 0.49 |
| CACAGTTTGC | 1.02 ± 0.026 |
| CACATATTCC | 1.14 ± 0.035 |
| CACATTATTC | 1.04 ± 0.033 |
| CACATTTAGG | 0.978 ± 0.032 |
| CACATTTGGA | 0.985 ± 0.051 |
| CACCAATAGC | 1.31 ± 0.059 |
| CACCACGTGG | 1.01 ± 0.018 |
| CACCAGTCAA | 1.56 ± 0.33 |
| CACCATTAGT | 0.9802 ± 0.0079 |
| CACCCTGGTG | 4.51 ± 0.57 |

| Sequence | switch fluorescence ratio |
| --- | --- |
| CACCGACTTT | 1.06 ± 0.0014 |
| CACCGTGGTC | 1.14 ± 0.023 |
| CACCGTTTTC | 1.1 ± 0.028 |
| CACCTACATG | 1.21 ± 0.031 |
| CACCTCAGAT | 1.05 ± 0.023 |
| CACCTTACTT | 1.26 ± 0.062 |
| CACGCATTTT | 1.12 ± 0.089 |
| CACGGAAGCA | 1.07 ± 0.019 |
| CACGGAGCAG | 2.52 ± 0.15 |
| CACGGATAAA | 1.04 ± 0.022 |
| CACGGATGGT | 1.01 ± 0.069 |
| CACGGCAAGA | 1.89 ± 0.087 |
| CACGGCCCAA | 0.9224 ± 0.0023 |
| CACGGGGTTT | 0.954 ± 0.011 |
| CACGGTATTT | 1.19 ± 0.067 |
| CACGTCTGAA | 0.996 ± 0.047 |
| CACGTTCAGC | 1.04 ± 0.035 |
| CACGTTGCCT | 0.979 ± 0.052 |
| CACGTTGTTT | 0.9963 ± 0.0019 |
| CACGTTTCCT | 1.1 ± 0.067 |
| CACTAACCAT | 1.09 ± 0.069 |
| CACTAAGTGG | 1.025 ± 0.0023 |
| CACTCTCAGC | 1.04 ± 0.012 |

| Sequence | switch fluorescence ratio |
| --- | --- |
| CACTCTGTGT | 1.02 ± 0.026 |
| CACTGACTTA | 1.19 ± 0.032 |
| CACTGCTCCT | 1.09 ± 0.013 |
| CACTGGGGAT | 0.981 ± 0.046 |
| CACTGGGGTG | 1.04 ± 0.038 |
| CACTGTAACC | 1.19 ± 0.072 |
| CACTGTGAAT | 1.009 ± 0.0024 |
| CACTTTTTTA | 0.962 ± 0.039 |
| CAGAAATTAG | 1.005 ± 0.0024 |
| CAGAACTCTT | 0.963 ± 0.034 |
| CAGAAGCCTG | 1.014 ± 0.0028 |
| CAGAAGGGAG | 0.98 ± 0.01 |
| CAGAAGGGCG | 1 ± 0.036 |
| CAGAAGTTTG | 1 ± 0.034 |
| CAGAATGCGG | 0.991 ± 0.023 |
| CAGAATGTGG | 0.996 ± 0.068 |
| CAGACAGGGG | 1.05 ± 0.02 |
| CAGACCAGCT | 1.02 ± 0.036 |
| CAGACGGAGT | 1.039 ± 0.01 |
| CAGACGGGGG | 1.01 ± 0.026 |
| CAGACGGGTC | 1 ± 0.041 |
| CAGAGACCTG | 1.02 ± 0.057 |
| CAGAGAGGTC | 1.03 ± 0.039 |

| Sequence | switch fluorescence ratio |
| --- | --- |
| CAGAGATTCT | 0.992 ± 0.0077 |
| CAGAGGGACT | 1.01 ± 0.023 |
| CAGAGGGCGG | 0.981 ± 0.047 |
| CAGAGGTAGG | 0.973 ± 0.023 |
| CAGAGGTTCC | 1.05 ± 0.042 |
| CAGAGTACGT | 1.036 ± 0.0091 |
| CAGAGTCTGT | 0.999 ± 0.022 |
| CAGAGTGTGG | 0.955 ± 0.026 |
| CAGAGTTAAT | 0.993 ± 0.045 |
| CAGAGTTTAG | 0.973 ± 0.032 |
| CAGATCCGGG | 1 ± 0.024 |
| CAGATGCGGA | 0.984 ± 0.017 |
| CAGATTTTTA | 1.01 ± 0.029 |
| CAGCAACTCA | 1.65 ± 0.024 |
| CAGCAGAGGG | 1.01 ± 0.01 |
| CAGCGGCGGA | 0.981 ± 0.029 |
| CAGCGGGGGA | 1.012 ± 0.0014 |
| CAGCGGGGGT | 1.03 ± 0.05 |
| CAGCGTATTT | 1.03 ± 0.036 |
| CAGCGTGGCA | 1 ± 0.021 |
| CAGCGTTGTT | 0.993 ± 0.018 |
| CAGCTAACTT | 1.0399 ± 0.00052 |
| CAGCTACGTC | 1.01 ± 0.04 |

| Sequence | switch fluorescence ratio |
| --- | --- |
| CAGCTAGAGG | 1 ± 0.037 |
| CAGCTGAGGC | 0.976 ± 0.038 |
| CAGCTGGGGA | 1.01 ± 0.055 |
| CAGCTGGGGG | 1 ± 0.024 |
| CAGGAAAGCA | 0.994 ± 0.031 |
| CAGGAAAGCT | 1.234 ± 0.0051 |
| CAGGAATGCG | 1.04 ± 0.055 |
| CAGGACTTGC | 0.995 ± 0.03 |
| CAGGAGACGC | 1.05 ± 0.036 |
| CAGGAGGAGA | 1.025 ± 0.01 |
| CAGGAGGGGT | 1.03 ± 0.025 |
| CAGGAGTGTA | 1.03 ± 0.036 |
| CAGGATGGGC | 0.977 ± 0.027 |
| CAGGCAAGCG | 1.04 ± 0.026 |
| CAGGCAGCAT | 1.32 ± 0.089 |
| CAGGCAGGTC | 0.997 ± 0.024 |
| CAGGCATAAG | 0.9805 ± 0.0036 |
| CAGGCATAGG | 1.06 ± 0.033 |
| CAGGCATGAG | 1.01 ± 0.011 |
| CAGGCCGTAT | 1.01 ± 0.016 |
| CAGGCGAGTG | 0.96 ± 0.014 |
| CAGGCGGAGA | 0.969 ± 0.026 |
| CAGGCGGCCC | 1.019 ± 0.01 |

| Sequence | switch fluorescence ratio |
| --- | --- |
| CAGGCGGGTG | 1.06 ± 0.11 |
| CAGGCTAGGT | 0.9873 ± 0.0049 |
| CAGGGAACGG | 1.05 ± 0.022 |
| CAGGGACATT | 1.08 ± 0.067 |
| CAGGGACGGA | 1.02 ± 0.017 |
| CAGGGACGTT | 0.987 ± 0.02 |
| CAGGGAGTAG | 1.01 ± 0.021 |
| CAGGGCATGG | 1.01 ± 0.0073 |
| CAGGGCCTGT | 1.01 ± 0.028 |
| CAGGGGAGGT | 1.02 ± 0.014 |
| CAGGGGATGT | 0.985 ± 0.013 |
| CAGGGGATTA | 1 ± 0.045 |
| CAGGGGCAGC | 0.927 ± 0.05 |
| CAGGGGCGCA | 1 ± 0.075 |
| CAGGGGCTCG | 1.01 ± 0.036 |
| CAGGGGGGTA | 1.01 ± 0.016 |
| CAGGGGGGTT | 1.09 ± 0.21 |
| CAGGGGTATC | 1.01 ± 0.033 |
| CAGGGGTATT | 1.32 ± 0.42 |
